In the nanobody polyreactivity screen of Harvey et al. (2022):

Experiment: yeast display, Sf9 membrane polyspecificity reagent, FACS + sequencing; frameworks hold sequencing errors
Method in brief: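 A nanobody's polyreactivity label depends on the gate it was sorted from. Yeast display cells were stained with 10% biotinylated, detergent-solubilized Sf9 membrane reagent for 1 hour at 4 °C, enriched on streptavidin microbeads and sorted by FACS. The low and high (top ~1%) gates were set on anti-HA fluorescence for expression and streptavidin fluorescence for reagent binding.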

Sequence	polyreactivity (PSR sort gate)
QVQLVESGGGLVQAGGSLRLSCAASGIIFRYYAMGWYRQPPGKERELVASISRGGSTYYADSVKGRFTISRDNAKNTVYLQMNSLKPEDTAVYYCAADVYPVYLYGYEYWGQGTQVTVSS	high polyreactivity
QVQLVESGGGLVQAGGSLRLSCAASGIIFRYYTMGWYRQAPGKEREFVAAITGSSGSTYADSVKGRFTISRDNAKNTVYLQMNSLKPEDTAVYYCNADSYSIWVYGEYDYWGQGTQVTVSS	high polyreactivity
QVQLVESGGGLVQAGGSLRLSCAASGIIFSAYAMGWYRQAPGKERELVAAISSGGSTNYADSVKGRFTISRDNAKNTVYLQMNSLKPEDTAVYYCNAGERDVPNSYVAYREDYWGQGTQVTVSS	low polyreactivity
QVQLVESGGGLVQAGGSLRLSCAASGIIFSDYAMGWYRQAPGKERELVAAITGGGSTYYADSVKGRFTISRDNAKKTVDLQMNSLKPEDTAVFYCNADWARLWIRSTEVDYWGQGSQVTVSS	low polyreactivity
QVQLVESGGGLVQAGGSLRLSCAASGIIFSGYAMGWYRQAPGKERELVASIRSGSNTYYADSVKGRFTISRDNAKNTVYLQMNSLKPEDTAVYYCAARVVPATFRFIRYPHPYYYWGQGTQVTVSS	low polyreactivity
QVQLVESGGGLVQAGGSLRLSCAASGIIFSHNVMGWYRQAPGKERELVAAITYSGGSTYYADSVKGRFTISRDNAKNTVYLLMNSLKPEDTAVYYCNALGVSRRDYDYWGQGTQVTVSS	low polyreactivity
QVQLVESGGGLVQAGGSLRLSCAASGIIFSNYAMGWYRQAPGKERDLVAAITRSGGRTYYADSVKGRFTISRDNAKNTVYLQMNSLKPEDTAVYYCAATGRSGVLSSYYYWGQGTQVTVSS	high polyreactivity
QVQLVESGGGLVQAGGSLRLSCAASGIIFSPYAMGLYRQAPGKERELVAAISYSGGSTYYADSVKGRFTISRDNAKNTVYLQMNSLKPEDTAVYYCAVVYSYYLAVLGYCDYDYWGQGTQVTVSS	low polyreactivity
QVQLVESGGGLVQAGGSLRLSCAASGIIFSPYAMGWYRQAPGNERELVAAISYSGGSTYYADSVKGRFTISRDNAKNTVYLQMNSLKPEDTAVYYCAVVYSYYLAVLGYWDYDYWGQGTQVTVSS	low polyreactivity
QVQLVESGGGLVQAGGSLRLSCAASGIIFSSNAMGWYRQAPGKERELVAAISRRGGSTYYADSVKGRFTISRDNAKNTVYLQMNSLKPEDTAVYYCNALLYNGAGYDYWGQGSQVTVSS	high polyreactivity
QVQLVESGGGLVQAGGSLRLSCAASGIIFSSNAMGWYTQAPGKERELVAAISRRGGSTYYADSVKGRFTISRDNAKNSVYLQMNSLKPEDTAVYYCNALLYNGAGYDYWGQGTQVTVSS	high polyreactivity
QVQLVESGGGLVQAGGSLRLSCAASGIIFSSYAMGWYRQAPGKERELVAAITYNGGRTYYADSVKGRFTISRDNAKNTVYLQMNSLKPEDTAVYYCAARTYGGNVLRLDYWGQGTQVTVSS	high polyreactivity
QVQLVESGGGLVQAGGSLRLSCAASGIIFSWYAMGWYRQAPGKEREFVAAISKSGGRTYYADSVKGRFTISRDNAKNTVYLQMNSLKPEDTAVYYFATGISRDYIYIILRYDYWGQGTQVTVSS	low polyreactivity
QVQLVESGGGLVQAGGSLRLSCAASGIIFSYNAMGWYRQAPGKERELVAANNSSGGSTNYADSVKGRFTISRDNAKNTVYLQMNSLKPEDTAVYYCAARDATYYGVWRYYGIDDYWGQGTQVTVSS	low polyreactivity
QVQLVESGGGLVQAGGSLRLSCAASGIIFSYYALGWYRQAPGKERELVAAITRGGGRTYYADSVKGRFTISRDNAKNTVSLQMNSLKPEDTAVYYCNALSRYVENDYWGQGTQVTVSS	high polyreactivity
QVQLVESGGGLVQAGGSLRLSCAASGIIFSYYAMGWYRQAPGKERELVAAISSGGSTNYADSVKGRFTISRDNAKNTVYLQMNSLKPEDTAVYYCAPLYRDYDWIFEYWGQGTQVTVSS	low polyreactivity
QVQLVESGGGLVQAGGSLRLSCAASGIIFSYYAMGWYRQEPGKERELVAAIDSGGSTYYADSVKGRFTISRDNAKNTVYLQMNSLKPEDTAVYYCNADTARGVPVFPHDYWGQGTQVTVSS	low polyreactivity
